Assay in all cases: scFv-phage ELISA
For orientation: ELISA stands for enzyme-linked immunosorbent assay.

In assay [1] the target is T1, ITGA6-Fc.
T1 construct: Fc fusion
T1 sequence (P23229 whole entry, species assumed, looked up): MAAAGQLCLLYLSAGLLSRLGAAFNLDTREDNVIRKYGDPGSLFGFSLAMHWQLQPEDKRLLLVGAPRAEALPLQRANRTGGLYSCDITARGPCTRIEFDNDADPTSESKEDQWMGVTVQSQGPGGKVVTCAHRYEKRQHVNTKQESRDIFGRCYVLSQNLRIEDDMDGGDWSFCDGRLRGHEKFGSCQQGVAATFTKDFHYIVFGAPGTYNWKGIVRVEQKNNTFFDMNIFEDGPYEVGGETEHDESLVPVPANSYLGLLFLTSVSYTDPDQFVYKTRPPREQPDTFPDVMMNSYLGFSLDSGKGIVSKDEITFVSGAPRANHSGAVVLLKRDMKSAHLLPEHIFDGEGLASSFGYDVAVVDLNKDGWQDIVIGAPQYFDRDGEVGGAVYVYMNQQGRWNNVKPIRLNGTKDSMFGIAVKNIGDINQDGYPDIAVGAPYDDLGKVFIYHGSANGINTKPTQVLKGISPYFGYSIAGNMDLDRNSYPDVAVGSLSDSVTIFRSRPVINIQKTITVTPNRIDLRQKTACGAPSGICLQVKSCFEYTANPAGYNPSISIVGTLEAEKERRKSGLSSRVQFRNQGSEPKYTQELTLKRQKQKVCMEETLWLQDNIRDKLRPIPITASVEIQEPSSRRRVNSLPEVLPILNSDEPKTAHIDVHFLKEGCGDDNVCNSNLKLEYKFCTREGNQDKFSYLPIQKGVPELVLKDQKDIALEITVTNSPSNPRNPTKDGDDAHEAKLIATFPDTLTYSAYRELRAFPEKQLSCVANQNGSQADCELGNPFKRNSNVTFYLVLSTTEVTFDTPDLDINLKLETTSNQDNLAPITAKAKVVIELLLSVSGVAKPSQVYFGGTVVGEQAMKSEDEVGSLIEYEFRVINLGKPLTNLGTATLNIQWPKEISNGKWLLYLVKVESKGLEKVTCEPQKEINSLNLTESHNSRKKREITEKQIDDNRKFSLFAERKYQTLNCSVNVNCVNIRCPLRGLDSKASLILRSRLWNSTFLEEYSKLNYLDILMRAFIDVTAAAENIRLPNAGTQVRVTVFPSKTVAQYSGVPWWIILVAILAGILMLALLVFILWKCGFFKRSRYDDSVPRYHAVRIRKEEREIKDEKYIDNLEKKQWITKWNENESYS

In assay [2] the target is T2, M1.
T2 construct: also called PD1 mutant M1

Assay [3] has as its target T3, M8.
T3 construct: also called PD1 mutant M8

The target in assay [4] is T4, M7.
T4 construct: also called PD1 mutant M7

Assay [5] addresses T5, M2.
T5 construct: also called PD1 mutant M2

Assay [6] has as its target T6, M2-1.
T6 construct: also called PD1 mutant M2-1

Assay [7] concerns the target T7, M1-2.
T7 construct: also called PD1 mutant M1-2

For assay [8], the target named is T8, antigen PD1 (coated, construct not stated) (UniProt Q15116 25-170, limits assumed).
T8 construct: also called PD1 antigen; PDCD1

Assay [9] has as its target T9, M6.
T9 construct: also called PD1 mutant M6

In assay [10] the target is T10, M3.
T10 construct: also called PD1 mutant M3

Assay [11] addresses T11, M12.
T11 construct: also called PD1 mutant M12

For assay [12], the target named is T12, M5-1.
T12 construct: also called PD1 mutant M5-1

Assay [13] addresses T13, M10.
T13 construct: also called PD1 mutant M10

For assay [14], the target named is T14, M9.
T14 construct: also called PD1 mutant M9

For assay [15], the target named is T15, M5.
T15 construct: also called PD1 mutant M5

In assay [16] the target is T16, M2-2.
T16 construct: also called PD1 mutant M2-2

Assay [17] addresses T17, M11.
T17 construct: also called PD1 mutant M11

Assay [18] addresses T18, M7-1.
T18 construct: also called PD1 mutant M7-1

Assay [19] addresses T19, M7-2.
T19 construct: also called PD1 mutant M7-2

Assay [20] has as its target T20, M1-1.
T20 construct: also called PD1 mutant M1-1

In assay [21] the target is T21, M13.
T21 construct: also called PD1 mutant M13

Assay [22] has as its target T22, M5-2.
T22 construct: also called PD1 mutant M5-2

Assay [23] deals with T23, M14.
T23 construct: also called PD1 mutant M14

In assay [24] the target is T24, M4.
T24 construct: also called PD1 mutant M4

T8 sequence (Q15116 25-170 limits assumed): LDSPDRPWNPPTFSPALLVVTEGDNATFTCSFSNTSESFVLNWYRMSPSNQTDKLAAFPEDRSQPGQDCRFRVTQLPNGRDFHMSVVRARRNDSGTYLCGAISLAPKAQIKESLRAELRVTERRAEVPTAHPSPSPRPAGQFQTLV

B1: PD1-44B5 (antibody, V domains shown)
VH: QVQLVESGGGVVQPGRSLRLSCAASGFTFSSYAMHWVRQAPGKGLEWVAVISYDGSNKYYADSVKGRFTISRDNSKNTLYLQMNSLRAEDTAVYYCARLMHTFSVQYFLDVWGQGTTVTVSS
VL: QFVLTQSPSASGTPGQNIVISCSASTFNIGTTTVNWYQRLPGTAPKLLIYNYDQRPSGVPDRFSGSKSGTSASLAISGLQSEDEADYYCAAWDDSLNAWLFGGGTKLTVL
notes: scFv-phage in the screening ELISA; later whole IgG
On to B1, for which the OD490 in assay [1] is 0.3; in assay [2], 3.8; in assay [3], 3.5; in assay [4], 3.6; in [5] it was 3.7; in [6], 3.6. The OD490 amounted to 0.3 in assay [7]; 3.8 in assay [8]; 3.7 in assay [9]; 3.7 in assay [10]; 3.6 in assay [11]; 3.7 in assay [12]. Besides, the OD490 in assay [13] worked out at 3.7; in [14] it was 3.7; in assay [15] it was 3.7; in [16], 3.7; in [17], 3.8; in assay [18] it was 3.7. The OD490 in assay [19] is 3.7; in [20] it was 3.6; in assay [21], 3.7; in assay [22], 3.8; in assay [23], 3.7; in assay [24], 3.6.

B2: PD1-45F1 (antibody, V domains shown)
VH: QVQLVQSGAEVKKPGASVKLSCKASGYTFNSYYVHWVRQAPGQGLEWMGIINPSDGSATYAQKFQGRVTMTSDTSTSSVYMELSSLRSEDTAVYYCARDGNYYDSRGYYYDTFDMWGQGTLITVSS
VL: SYELTQDPAVSVALGQTVRITCQGDSLRTYYASWYQQKPGQAPILVIYGKNNRPSGIPDRFSGSSSGNTASLTITAAQAEDEADYYCNSRDSSGKSLVFGGGTKLTVL
notes: as for B1
On to B2, for which the OD490 stood at 0.1 in assay [1]; 3.9 in [2]; 3.9 in assay [3]; 3.8 in [4]; 3.8 in [5]; 3.9 in assay [6]. The OD490 came to 3.9 in [7]; 4 in assay [8]; 4 in assay [9]; 3.8 in assay [10]; 0.4 in assay [11]; 3.9 in [12]. The OD490 in assay [13] was 3.9; in [14], 3.8; in assay [15], 3.8; in [16], 4; in assay [17] it was 3.8; in assay [18], 3.9. The OD490 was 3.9 in assay [19]; 3.9 in [20]; 2.2 in [21]; 3.9 in assay [22]; 3.8 in [23]; 3.9 in [24].

B3: PD1-45F4 (antibody, V domains shown)
VH: QMQLVESGGGLVQPGRSLRLSCAASGFTFDDYAMHWVRQAPGQGLEWVSGISWNSNNIKYADSVKGRFTISRDNSKNSLYLQMNSLRAEDTAVYYCARGALTPLDVWGQGTPVTVSS
VL: SYELTQAPSLSVSPGQTANIICSGDNLRTKYVSWYQQKPGQSPLLVIYQDTRRPSGIPARFSGSNSGNTATLTISGTQTRDESTYYCMTWDVDTTSMIFGGGTKLTVL
notes: as for B1
For B3, the OD490 in [1] stood at 0.1; in assay [2], 2.6; in assay [3] it was 3.6; in [4], 3.5; in assay [5], 2.9; in [6], 3. Further, the OD490 was 3.6 in assay [7]; 3.8 in assay [8]; 3.7 in assay [9]; 3.7 in [10]; 3.7 in assay [11]; 0.1 in assay [12]. Moreover, the OD490 stood at 3.3 in assay [13]; 3.3 in [14]; 0.1 in assay [15]; 2.5 in assay [16]; 0.3 in [17]; 3.5 in assay [18]. Also, the OD490 was 3.4 in assay [19]; 2.5 in assay [20]; 3.5 in [21]; 3.1 in assay [22]; 1.8 in assay [23]; 2.7 in assay [24].

B4: PD1-42G4 (antibody, V domains shown)
VH: QVQLVESGGGLVKPGGSLRLSCAASGFTFSDYYMSWIRQAPGKGLEWVSDISASGNSIYYADSVKRRFTISRDNSKNSLYLQMNSLRAEDTAVYYCVTSGPFGEFRNWGLGTLVTVSS
VL: DIQMTQSPSSLSASVGDRVTTTCRASQGISSYLAWYQQKPGKAPKLLIYAASTLQSGVPSRFSGSGSGTDFTLTISSLQPEDFATYFCQQSYTSPRTFGQGTKLDIK
notes: as for B1
For the molecule B4, the OD490 came out at 0.4 in assay [1]; 1.8 in [2]; 2.1 in [3]; 2.5 in assay [4]; 0.6 in assay [5]; 0.6 in [6]. Further, the OD490 amounted to 0.6 in assay [7]; 2.8 in [8]; 3.3 in assay [9]; 2 in [10]; 2.7 in assay [11]; 1.9 in [12]. For the same molecule, the OD490 in [13] came out at 3.1; in assay [14] it was 3.4; in assay [15], 1.6; in assay [16] it was 3; in [17] it was 1.7; in assay [18], 2.8. Besides, the OD490 in assay [19] was found to be 2.7; in assay [20], 2.9; in assay [21], 3.7; in assay [22] it was 3.5; in assay [23], 3.7; in assay [24] it was 1.9.

The values are drawn from patent publication US20190248900A1 (Y BIOLOGICS, published 2019).
